Test results as given in patent US20260250371A1 (ULTRAGENYX PHARMACEUTICAL, published 2026).
Where “and” joins values, the source holds several entries; their conditions need not be identical. Identical values can stand only once.

T1: recombinant human FGF23 (R179Q) (human, UniProt Q9GZV9 25-251)
T1 construct: also called rhFGF23(R179Q); hFGF23(R179Q)
T1 sequence (looked up): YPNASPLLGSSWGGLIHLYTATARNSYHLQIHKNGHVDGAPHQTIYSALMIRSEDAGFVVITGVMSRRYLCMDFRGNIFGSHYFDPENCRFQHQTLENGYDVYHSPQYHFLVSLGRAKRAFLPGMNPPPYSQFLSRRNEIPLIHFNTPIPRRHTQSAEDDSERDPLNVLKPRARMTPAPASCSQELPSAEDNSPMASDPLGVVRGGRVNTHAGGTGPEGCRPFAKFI


Target: T1, recombinant human FGF23 (R179Q)
Assay: SPR, antibody captured on hIgG chip, rhFGF23(R179Q) analyte

| Kd | Ratio (variant antibody KD/burosumab KD) | koff | kon | SA (surface activity) [%] | Binder |
| --- | --- | --- | --- | --- | --- |
| 0.061 nM | 0 | 0.000267 s⁻¹ | 4.38e+06 M⁻¹ s⁻¹ | 84.2 | UGX161 (antibody, human IgG1, kappa, V domains shown, also called HC:S59I) VH: QVQLVQSGAEVKKPGASVKVSCKASGYTFTNHYMHWVRQAPGQGLEWMGIINPISGSTINAQKFQGRVTMTRDTSTSTVYMELSSLRSEDTAVYYCARDIVDAFDFWGQGTMVTVSS VL: AIQLTQSPSSLSASVGDRVTITCRASQGISSALVWYQQKPGKAPKLLIYDASSLESGVPSRFSGSGSGTDFTLTISSLQPEDFATYYCQQFNDYFTFGPGTKVDIKR |
| 0.112 nM | 0 | 0.000322 s⁻¹ | 2.87e+06 M⁻¹ s⁻¹ | 83.7 | UGX153 (antibody, human IgG1, kappa, V domains shown, also called HC:N31R) VH: QVQLVQSGAEVKKPGASVKVSCKASGYTFTRHYMHWVRQAPGQGLEWMGIINPISGSTSNAQKFQGRVTMTRDTSTSTVYMELSSLRSEDTAVYYCARDIVDAFDFWGQGTMVTVSS VL: AIQLTQSPSSLSASVGDRVTITCRASQGISSALVWYQQKPGKAPKLLIYDASSLESGVPSRFSGSGSGTDFTLTISSLQPEDFATYYCQQFNDYFTFGPGTKVDIKR |
| 0.0986 nM | 0 | 0.000472 s⁻¹ | 4.79e+06 M⁻¹ s⁻¹ | 88.4 | UGX162 (antibody, human IgG1, kappa, V domains shown, also called HC:S59L) VH: QVQLVQSGAEVKKPGASVKVSCKASGYTFTNHYMHWVRQAPGQGLEWMGIINPISGSTLNAQKFQGRVTMTRDTSTSTVYMELSSLRSEDTAVYYCARDIVDAFDFWGQGTMVTVSS VL: AIQLTQSPSSLSASVGDRVTITCRASQGISSALVWYQQKPGKAPKLLIYDASSLESGVPSRFSGSGSGTDFTLTISSLQPEDFATYYCQQFNDYFTFGPGTKVDIKR |
| 0.0226 nM and 0.0251 nM | 1 | 0.000224 s⁻¹ and 0.000222 s⁻¹ | 9.91e+06 M⁻¹ s⁻¹ and 8.83e+06 M⁻¹ s⁻¹ |  | UGX159 (antibody, human IgG1, kappa, V domains shown, also called HC:S59E) VH: QVQLVQSGAEVKKPGASVKVSCKASGYTFTNHYMHWVRQAPGQGLEWMGIINPISGSTENAQKFQGRVTMTRDTSTSTVYMELSSLRSEDTAVYYCARDIVDAFDFWGQGTMVTVSS VL: AIQLTQSPSSLSASVGDRVTITCRASQGISSALVWYQQKPGKAPKLLIYDASSLESGVPSRFSGSGSGTDFTLTISSLQPEDFATYYCQQFNDYFTFGPGTKVDIKR |
| 0.0142 nM and 0.0147 nM and 0.0146 nM | 1 | 8.7e-05 s⁻¹ and 9.61e-05 s⁻¹ and 9.01e-05 s⁻¹ | 6.2e+06 M⁻¹ s⁻¹ (2×) and 6.5e+06 M⁻¹ s⁻¹ |  | UGX160 (antibody, human IgG1, kappa, V domains shown, also called UGX066; HC:S59F) VH: QVQLVQSGAEVKKPGASVKVSCKASGYTFTNHYMHWVRQAPGQGLEWMGIINPISGSTFNAQKFQGRVTMTRDTSTSTVYMELSSLRSEDTAVYYCARDIVDAFDFWGQGTMVTVSS VL: AIQLTQSPSSLSASVGDRVTITCRASQGISSALVWYQQKPGKAPKLLIYDASSLESGVPSRFSGSGSGTDFTLTISSLQPEDFATYYCQQFNDYFTFGPGTKVDIKR |
| 0.0255 nM | 1 | 0.000212 s⁻¹ | 8.32e+06 M⁻¹ s⁻¹ | 90.3 | UGX151 (antibody, human IgG1, kappa, V domains shown, also called HC:N31F) VH: QVQLVQSGAEVKKPGASVKVSCKASGYTFTFHYMHWVRQAPGQGLEWMGIINPISGSTSNAQKFQGRVTMTRDTSTSTVYMELSSLRSEDTAVYYCARDIVDAFDFWGQGTMVTVSS VL: AIQLTQSPSSLSASVGDRVTITCRASQGISSALVWYQQKPGKAPKLLIYDASSLESGVPSRFSGSGSGTDFTLTISSLQPEDFATYYCQQFNDYFTFGPGTKVDIKR |
| 0.0416 nM | 0 | 0.000262 s⁻¹ | 6.29e+06 M⁻¹ s⁻¹ | 91.2 | UGX152 (antibody, human IgG1, kappa, V domains shown, also called HC:N31Q) VH: QVQLVQSGAEVKKPGASVKVSCKASGYTFTQHYMHWVRQAPGQGLEWMGIINPISGSTSNAQKFQGRVTMTRDTSTSTVYMELSSLRSEDTAVYYCARDIVDAFDFWGQGTMVTVSS VL: AIQLTQSPSSLSASVGDRVTITCRASQGISSALVWYQQKPGKAPKLLIYDASSLESGVPSRFSGSGSGTDFTLTISSLQPEDFATYYCQQFNDYFTFGPGTKVDIKR |

The remaining lines, values behind:

| Binder | Kd | Ratio (variant antibody KD/burosumab KD) | koff | kon | SA (surface activity) [%] |
| --- | --- | --- | --- | --- | --- |
| UGX117 (antibody, human IgG1, kappa, V domains shown, also called LC:V34I) VH: QVQLVQSGAEVKKPGASVKVSCKASGYTFTNHYMHWVRQAPGQGLEWMGIINPISGSTSNAQKFQGRVTMTRDTSTSTVYMELSSLRSEDTAVYYCARDIVDAFDFWGQGTMVTVSS VL: AIQLTQSPSSLSASVGDRVTITCRASQGISSALIWYQQKPGKAPKLLIYDASSLESGVPSRFSGSGSGTDFTLTISSLQPEDFATYYCQQFNDYFTFGPGTKVDIKR | 0.0504 nM and 0.0703 nM | 0 | 0.000169 s⁻¹ and 0.000204 s⁻¹ | 3.35e+06 M⁻¹ s⁻¹ and 2.9e+06 M⁻¹ s⁻¹ |  |
| UGX127 (antibody, human IgG1, kappa, V domains shown, also called UGX017; LC:S52E) VH: QVQLVQSGAEVKKPGASVKVSCKASGYTFTNHYMHWVRQAPGQGLEWMGIINPISGSTSNAQKFQGRVTMTRDTSTSTVYMELSSLRSEDTAVYYCARDIVDAFDFWGQGTMVTVSS VL: AIQLTQSPSSLSASVGDRVTITCRASQGISSALVWYQQKPGKAPKLLIYDAESLESGVPSRFSGSGSGTDFTLTISSLQPEDFATYYCQQFNDYFTFGPGTKVDIKR | 0.0176 nM | 1 | 0.000122 s⁻¹ | 6.93e+06 M⁻¹ s⁻¹ | 85 |
| UGX135 (antibody, human IgG1, kappa, V domains shown, also called LC:N92D) VH: QVQLVQSGAEVKKPGASVKVSCKASGYTFTNHYMHWVRQAPGQGLEWMGIINPISGSTSNAQKFQGRVTMTRDTSTSTVYMELSSLRSEDTAVYYCARDIVDAFDFWGQGTMVTVSS VL: AIQLTQSPSSLSASVGDRVTITCRASQGISSALVWYQQKPGKAPKLLIYDASSLESGVPSRFSGSGSGTDFTLTISSLQPEDFATYYCQQFDDYFTFGPGTKVDIKR | 0.0235 nM | 1 | 0.000181 s⁻¹ | 7.71e+06 M⁻¹ s⁻¹ | 100 |
| UGX131 (antibody, human IgG1, kappa, V domains shown, also called LC:S53F) VH: QVQLVQSGAEVKKPGASVKVSCKASGYTFTNHYMHWVRQAPGQGLEWMGIINPISGSTSNAQKFQGRVTMTRDTSTSTVYMELSSLRSEDTAVYYCARDIVDAFDFWGQGTMVTVSS VL: AIQLTQSPSSLSASVGDRVTITCRASQGISSALVWYQQKPGKAPKLLIYDASFLESGVPSRFSGSGSGTDFTLTISSLQPEDFATYYCQQFNDYFTFGPGTKVDIKR | 0.0393 nM | 1 | 0.000266 s⁻¹ | 6.78e+06 M⁻¹ s⁻¹ | 95.7 |
| UGX130 (antibody, human IgG1, kappa, V domains shown, also called LC:S53E) VH: QVQLVQSGAEVKKPGASVKVSCKASGYTFTNHYMHWVRQAPGQGLEWMGIINPISGSTSNAQKFQGRVTMTRDTSTSTVYMELSSLRSEDTAVYYCARDIVDAFDFWGQGTMVTVSS VL: AIQLTQSPSSLSASVGDRVTITCRASQGISSALVWYQQKPGKAPKLLIYDASELESGVPSRFSGSGSGTDFTLTISSLQPEDFATYYCQQFNDYFTFGPGTKVDIKR | 0.0348 nM | 1 | 0.000358 s⁻¹ | 1.03e+07 M⁻¹ s⁻¹ | 88.4 |
| UGX146 (antibody, human IgG1, kappa, V domains shown, also called LC:Y94F) VH: QVQLVQSGAEVKKPGASVKVSCKASGYTFTNHYMHWVRQAPGQGLEWMGIINPISGSTSNAQKFQGRVTMTRDTSTSTVYMELSSLRSEDTAVYYCARDIVDAFDFWGQGTMVTVSS VL: AIQLTQSPSSLSASVGDRVTITCRASQGISSALVWYQQKPGKAPKLLIYDASSLESGVPSRFSGSGSGTDFTLTISSLQPEDFATYYCQQFNDFFTFGPGTKVDIKR | 0.0332 nM | 1 | 0.00017 s⁻¹ | 5.14e+06 M⁻¹ s⁻¹ | 89.9 |
| UGX148 (antibody, human IgG1, kappa, V domains shown, also called HC:T30F) VH: QVQLVQSGAEVKKPGASVKVSCKASGYTFFNHYMHWVRQAPGQGLEWMGIINPISGSTSNAQKFQGRVTMTRDTSTSTVYMELSSLRSEDTAVYYCARDIVDAFDFWGQGTMVTVSS VL: AIQLTQSPSSLSASVGDRVTITCRASQGISSALVWYQQKPGKAPKLLIYDASSLESGVPSRFSGSGSGTDFTLTISSLQPEDFATYYCQQFNDYFTFGPGTKVDIKR | 0.0272 nM | 1 | 0.000181 s⁻¹ | 6.65e+06 M⁻¹ s⁻¹ | 91.2 |
| UGX140 (antibody, human IgG1, kappa, V domains shown, also called UGX039; LC:D93F) VH: QVQLVQSGAEVKKPGASVKVSCKASGYTFTNHYMHWVRQAPGQGLEWMGIINPISGSTSNAQKFQGRVTMTRDTSTSTVYMELSSLRSEDTAVYYCARDIVDAFDFWGQGTMVTVSS VL: AIQLTQSPSSLSASVGDRVTITCRASQGISSALVWYQQKPGKAPKLLIYDASSLESGVPSRFSGSGSGTDFTLTISSLQPEDFATYYCQQFNFYFTFGPGTKVDIKR |  |  |  | 2.63e+06 M⁻¹ s⁻¹ and 2.27e+06 M⁻¹ s⁻¹ |  |
| UGX133 (antibody, human IgG1, kappa, V domains shown, also called UGX022; LC:S53Y) VH: QVQLVQSGAEVKKPGASVKVSCKASGYTFTNHYMHWVRQAPGQGLEWMGIINPISGSTSNAQKFQGRVTMTRDTSTSTVYMELSSLRSEDTAVYYCARDIVDAFDFWGQGTMVTVSS VL: AIQLTQSPSSLSASVGDRVTITCRASQGISSALVWYQQKPGKAPKLLIYDASYLESGVPSRFSGSGSGTDFTLTISSLQPEDFATYYCQQFNDYFTFGPGTKVDIKR | 0.202 nM | 0 | 0.000733 s⁻¹ | 3.63e+06 M⁻¹ s⁻¹ | 84.8 |
| UGX137 (antibody, human IgG1, kappa, V domains shown, also called UGX035; LC:N92F) VH: QVQLVQSGAEVKKPGASVKVSCKASGYTFTNHYMHWVRQAPGQGLEWMGIINPISGSTSNAQKFQGRVTMTRDTSTSTVYMELSSLRSEDTAVYYCARDIVDAFDFWGQGTMVTVSS VL: AIQLTQSPSSLSASVGDRVTITCRASQGISSALVWYQQKPGKAPKLLIYDASSLESGVPSRFSGSGSGTDFTLTISSLQPEDFATYYCQQFFDYFTFGPGTKVDIKR | 0.0319 nM | 1 | 0.000161 s⁻¹ | 5.04e+06 M⁻¹ s⁻¹ | 86.5 |
